Target: T1, House dust mite allergen Der p 2 (Dermatophagoides pteronyssinus, UniProt P49278)
T1 construct: Der p 2, major allergen of the house dust mite Dermatophagoides pteronyssinus; The structure is said to show monomeric Der p 2; No PDB id is printed in the abstract; source: Pichia pastoris, purified
Assay: crystal structure; purified 4C8 Fab and Der p 2 mixed in a 1:1 molar ratio for crystallization; X-ray, 3.0 Å
Conditions: both partners purified

T1 sequence (P49278 18-146): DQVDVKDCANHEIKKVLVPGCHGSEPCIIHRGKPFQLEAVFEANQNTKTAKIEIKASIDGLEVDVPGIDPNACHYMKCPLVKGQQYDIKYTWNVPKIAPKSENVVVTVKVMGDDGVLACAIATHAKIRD

B1: human-derived IgE mAb 4C8 Fab (Fab, V domains shown)
VH: EVQLVESGGGLVQPGGSLRLSCAASGFTFSSYAIHWVRQAPGKGLEWVSGLSGGGGDTDYADSVKGRLTISRDNSKKTLFLEMNNLRPEDTAIYYCAKLTGYGSTPGSYMDVWGKGTTVSVSS
VL: SFELTQPPSVSVSPGQTASITCSGDKLGDIYASWYQQKPGQSPVVVIFQDNKRPSGVPERFSGSNSGNTATLTISGTQALDEADYYCQAWDTSTSVFGTGTKVTVL
notes: Fab of a human IgE mAb isolated from hybridomas obtained from a house dust mite allergic patient; also called hIgE mAb 4C8 Fab; source: CHO cells, purified
In the case of B1, the “stoichiometry N” value is reported as 2.
